Bridge positions count the residues as written; N and C are the ends. Square brackets hold non-standard residues; d marks the D form. Peptide text beside a SMILES is read from it. I, II: the chains in the order shown. hArg = N=C(N)NCCCC[C@H](N)C(=O)O; Met(O) = CS(=O)CC[C@H](N)C(=O)O; Ac5c = NC1(C(=O)O)CCCC1; Aib = CC(C)(N)C(=O)O
Legend:
[1] = target: T1, Saos-2 PTH1R (Homo sapiens, UniProt Q03431); test: cAMP-efficacy assay in Saos-2 cells; type: cell-based; conditions: for EC50: cAMP, 100 μM IBMX, 37° C. 15 min, suffix of label = salt tested; for Emax ± SEM: relative effect to the control (SEQ ID NO: 32)
T1 construct: endogenous in cells; host or cells: Saos-2
T1 sequence (Q03431 27-593): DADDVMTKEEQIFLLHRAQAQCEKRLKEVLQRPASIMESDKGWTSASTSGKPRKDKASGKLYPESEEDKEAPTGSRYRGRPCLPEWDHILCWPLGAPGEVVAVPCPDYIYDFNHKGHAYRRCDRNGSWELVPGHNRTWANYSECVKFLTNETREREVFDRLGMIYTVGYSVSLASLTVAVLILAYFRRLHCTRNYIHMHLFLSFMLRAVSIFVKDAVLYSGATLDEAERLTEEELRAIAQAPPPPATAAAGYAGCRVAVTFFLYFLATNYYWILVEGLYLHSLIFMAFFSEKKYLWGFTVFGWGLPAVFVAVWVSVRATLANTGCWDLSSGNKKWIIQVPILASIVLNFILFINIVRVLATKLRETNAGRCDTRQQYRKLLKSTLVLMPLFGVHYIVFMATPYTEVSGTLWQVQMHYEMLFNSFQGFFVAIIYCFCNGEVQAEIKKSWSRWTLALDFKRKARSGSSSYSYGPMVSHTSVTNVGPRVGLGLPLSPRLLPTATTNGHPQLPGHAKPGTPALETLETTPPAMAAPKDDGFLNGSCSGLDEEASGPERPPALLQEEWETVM
Method: Peptides were dissolved in phosphate buffered saline and further diluted in Tyrode's buffer (TB, Sigma-Aldrich) containing 0.1% BSA and 100 μM isobutyl-methyl-xanthine (IBMX, Sigma-Aldrich). Saos-2 cells were seeded at 50,000 cells/well in 96-microtiter plates and grown for two days before the efficacy assays. On the day of analysis, the growth medium was carefully removed by suction. Cells were washed once with 200 μl TB/0.1% BSA. The buffer was replaced with 100 μl reaction mixture (±test peptide), and incubated at 37° C. for 15 min. The reaction was stopped by addition of 25 μl of ice-cold 0.5 M HCl. Cells were in the following incubated on ice for 60 min. 75 μl acetate-buffer, pH6.2, was added to each well of a 96-well cAMP FlashPlate (Perkin-Elmer). […] FlashPlates were incubated overnight at 4° C., emptied by suction and counted in a TopCounter (Packard).
Determinations were performed in single determinations or triplicates at all doses. […] Standards were included as single determinations, duplicates or triplicates in each experiment, preferentially on each plate.
Concentration-dependent cAMP responses were imported into GraphPad Prism vers. 4 (GraphPad Software), transformed and plotted. […] Thus, a four-parameter logistic equation was used for determination of the EC50 values. Curves were fitted with a function for sigmoidal dose response curve (variable slope) non-linear fit Y=Bottom+(Top-Bottom)/(1+10̂((LogEC50−X)*HillSlope)) where X is the logarithm of concentration and Y is the response. Y starts at Bottom and goes to Top with a sigmoid shape. pEC50, Hill-coefficient and the maximally inducible concentration of cAMP (Emax) were evaluated.
Overall statistical differences were analyzed with Statistica (Statsoft) using one-way ANOVA. Post-hoc comparisons were made by the use of Fisher's Least Significance Test. Results were considered significant, when p was lower than 0.05.

[2] = target: Saos-2 PTH1R (UniProt Q03431); test: cell-based or functional assay

CC[C@H](C)[C@H](NC(=O)[C@H](CCC(=O)O)NC(=O)C(C)(C)NC(=O)[C@@H](NC(=O)C1(N)CCCC1)C(C)C)C(=O)N[C@@H](CCC(N)=O)C(=O)N[C@@H](CC(C)C)C(=O)N[C@@H](CCSC)C(=O)N[C@@H](Cc1c[nH]cn1)C(=O)N[C@@H](CC(N)=O)C(=O)N[C@@H](CC(C)C)C(=O)NCC(=O)N[C@@H](CCCCN)C(=O)N[C@@H](Cc1c[nH]cn1)C(=O)N[C@@H](CC(C)C)C(=O)N[C@@H](CC(N)=O)C(=O)N[C@@H](CO)C(N)=O [SEQ ID NO: 35] (H-[Ac5c]V[Aib]EIQLMHNLGKHLNS-NH2)
EC50 [1]: 8130 nM
Emax ± SEM [1]: 1.20 ± 0.01

CC[C@H](C)[C@H](NC(=O)[C@H](CCC(=O)O)NC(=O)C(C)(C)NC(=O)[C@@H](NC(=O)C1(N)CCCC1)C(C)C)C(=O)N[C@@H](CCC(N)=O)C(=O)N[C@@H](CC(C)C)C(=O)N[C@@H](CCSC)C(=O)N[C@@H](Cc1c[nH]cn1)C(=O)N[C@@H](CCC(N)=O)C(=O)N[C@@H](CCCCNC(=N)N)C(=O)N[C@@H](C)C(=O)N[C@@H](CCCCN)C(=O)N[C@@H](Cc1c[nH]c2ccccc12)C(=O)N[C@@H](CC(C)C)C(=O)N[C@@H](CC(N)=O)C(=O)N[C@@H](CC(=O)O)C(=O)O [SEQ ID NO: 38, H-Ac5c-Val-Aib-Glu-Ile-Gln-Leu-Met-His-Gln-Har-Ala-Lys-Trp-Leu-Asn-Asp-OH] (H-[Ac5c]V[Aib]EIQLMHQ[hArg]AKWLND-OH)
EC50 [1]: 100 nM
Emax ± SEM [1]: 1.2

CC[C@H](C)[C@H](NC(=O)[C@H](CCC(=O)O)NC(=O)C(C)(C)NC(=O)[C@@H](NC(=O)C1(N)CCCC1)C(C)C)C(=O)N[C@@H](CCC(N)=O)C(=O)N[C@@H](CC(C)C)C(=O)N[C@@H](CCSC)C(=O)N[C@@H](Cc1c[nH]cn1)C(=O)N[C@@H](CCC(N)=O)C(=O)N[C@@H](CCCCNC(=N)N)C(=O)N[C@@H](C)C(=O)N[C@H]1CCCCNC(=O)C[C@@H](C(N)=O)NC(=O)[C@H](CC(N)=O)NC(=O)[C@H](CC(C)C)NC(=O)[C@H](Cc2c[nH]c3ccccc23)NC(=O)[C@@H](NC(=O)[C@H](C)NC(=O)[C@H](CCCCNC(=N)N)NC(=O)[C@H](CCC(N)=O)NC(=O)[C@H](Cc2c[nH]cn2)NC(=O)[C@H](CCSC)NC(=O)[C@H](CC(C)C)NC(=O)[C@H](CCC(N)=O)NC(=O)[C@@H](NC(=O)[C@H](CCC(=O)O)NC(=O)C(C)(C)NC(=O)[C@@H](NC(=O)C2(N)CCCC2)C(C)C)[C@@H](C)CC)CCCCNC(=O)C[C@@H](C(N)=O)NC(=O)[C@H](CC(N)=O)NC(=O)[C@H](CC(C)C)NC(=O)[C@H](Cc2c[nH]c3ccccc23)NC1=O [SEQ ID NO: 39, (H-Ac5c-Val-Aib-Glu-Ile-Gln-Leu-Met-His-Gln-Har-Ala-Lys( )-Trp-Leu-Asn-Asp( )-NH2)2] (I: H-[Ac5c]V[Aib]EIQLMHQ[hArg]AKWLND-NH2 / II: H-[Ac5c]V[Aib]EIQLMHQ[hArg]AKWLND-NH2; amide I:13-II:17, I:17-II:13)
Emax ± SEM [1]: 0.95 ± 0.05

CC[C@H](C)[C@H](NC(=O)[C@H](CCC(=O)O)NC(=O)C(C)(C)NC(=O)[C@@H](NC(=O)C1(N)CCCC1)C(C)C)C(=O)N[C@@H](CCC(N)=O)C(=O)N[C@@H](CC(C)C)C(=O)N[C@@H](CC[S+](C)[O-])C(=O)N[C@@H](Cc1c[nH]cn1)C(=O)N[C@@H](CCC(N)=O)C(=O)N[C@@H](CCCCNC(=N)N)C(=O)N[C@@H](C)C(=O)N[C@H]1CCCCNC(=O)C[C@@H](C(N)=O)NC(=O)[C@H](CC(N)=O)NC(=O)[C@H](CC(C)C)NC(=O)[C@H](Cc2c[nH]c3ccccc23)NC1=O (stereo partly drawn) [SEQ ID NO: 40, H-Ac5c-Val-Aib-Glu-Ile-Gln-Leu-Met(O)-His-Gln-Har-Ala-Lys( )-Trp-Leu-Asn-Asp( )-NH2] (H-[Ac5c]V[Aib]EIQL[Met(O)]HQ[hArg]AKWLND-NH2; lactam 13-17)
EC50 [1]: 126 nM
Emax ± SEM [1]: 1.1

(H-Ac5c-Val-Aib-Glu-Ile-Gln-Leu-Met-His-Gln-Har-Ala-Lys( )-Trp-Leu-Asn-Asp( )-NH2)2 (peptide)
Emax, cAMP efficacy assay in Saos-2 cells (39T, trifluoroacetate salt) (relative to control (SEQ ID NO: 32)) [2]: 0.95
pEC50, cAMP efficacy assay in Saos-2 cells (39T, trifluoroacetate salt) [2]: 8.3 -log(M)

H-Ac5c-Val-Ac5c-Glu-Ile-Gln-Leu-Leu-His-Gln-Har-Ala-Lys( )-Trp-Leu-Asn-Asp( )-NH2 (peptide)
Emax, cAMP efficacy assay in Saos-2 cells (14T, trifluoroacetate salt) (relative to control (SEQ ID NO: 32)) [2]: 1.03
pEC50, cAMP efficacy assay in Saos-2 cells (14T, trifluoroacetate salt) [2]: 7.45 -log(M)

H-Ac5c-Val-Aib-Glu-Ile-Gln-Leu-Leu-His-Gln-Har-Ala-Lys( )-Trp-Leu-Asp-Asp( )-NH2 (peptide)
Emax, cAMP efficacy assay in Saos-2 cells (22T, trifluoroacetate salt) (relative to control (SEQ ID NO: 32)) [2]: 1.08
pEC50, cAMP efficacy assay in Saos-2 cells (22T, trifluoroacetate salt) [2]: 7.13 -log(M)

H-Ac5c-Val-Aib-Glu-Ile-Gln-Leu-Leu-His-Gln-Har-Arg-Lys( )-Trp-Leu-Asn-Asp( )-NH2 (peptide)
Emax, cAMP efficacy assay in Saos-2 cells (28T, trifluoroacetate salt) (relative to control (SEQ ID NO: 32)) [2]: 0.95
pEC50, cAMP efficacy assay in Saos-2 cells (28T, trifluoroacetate salt) [2]: 8.27 -log(M)

Reference: patent publication US20100048462A1, “TRUNCATED PTH PEPTIDES WITH A CYCLIC CONFORMATION” (Zealand Pharma A/S, priority 2006, published 2010)
